Measurements taken from paper PMC5900569.
pKd: −log10 of the molar value.

The sequences below were run on cTSN (Tudor staphylococcal nuclease) (Caenorhabditis elegans) (assay: filter binding). Settings: 50 mM HEPES pH 7.0, 250 mM NaCl, 5 mM beta-mercaptoethanol, 2 mM EDTA, 30 min, room temperature; cTSN 0-2 uM.
Work on “ACUGGACAAAUACUCCGAGG / CCUCGGAGUAUUUGUCCAGU [dsRNA 20 bp]” yielded a pKd of 6.41.
Sequence ACUGGACAAAUACUCCGAGG [ssRNA 20 nt] has a pKd of 6.12.
“CAGUCACCCAUAAAGUAGAAAGCACUAC / GUAGUGUUUCCUACUUUAUGGAUGAGUG [pre-miR142Δloop]” was tested, and the pKd was 6.63.
“CAGUCACCCAUAAAGUAGAAAGCACUACUGUGGGUAGUGUUUCCUACUUUAUGGAUGAGUG [pre-miR142]” gave a pKd of 6.87.

Same assay, conditions: inosine (A-to-I edited, positions in Figure 3); 50 mM HEPES pH 7.0, 250 mM NaCl, 5 mM beta-mercaptoethanol, 2 mM EDTA, 30 min, room temperature; cTSN 0-2 uM
“CAGUCACCCAUAAAGUAGAAAGCACUAC / GUAGUGUUUCCUACUUUAUGGAUGAGUG [pre-miR142Δloop-AtoI]” showed a pKd of 7.17.
“CAGUCACCCAUAAAGUAGAAAGCACUACUGUGGGUAGUGUUUCCUACUUUAUGGAUGAGUG [pre-miR142-AtoI]” was tested, and the pKd was 7.13.
